According to the nanobody polyreactivity screen of Harvey et al. (2022):

Experiment: yeast display, Sf9 membrane polyspecificity reagent, FACS + sequencing; frameworks hold sequencing errors
Procedure, shortened: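 Nanobodies from a synthetic yeast display library (Saccharomyces cerevisiae BJ5465), induced 36–48 hours with galactose, were stained 1 hour at 4 °C with 10% biotinylated, detergent-solubilized Sf9 membrane reagent, enriched on streptavidin microbeads, then FACS-sorted. Anti-HA (expression) and streptavidin (reagent binding) fluorescence set low and high (top ~1%) gates. Polyreactivity labels come from the gate of origin. Genes were colony-PCR amplified, MiSeq 2 × 250 sequenced and filtered by CDR length.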

Sequence | polyreactivity (PSR sort gate)
QVQLVESGGGLVQAGGSLRLSCAASGFILQYNAMGWYRQAPGKERELVAAITRSGVSTYYADSVKGRFTISRDNAKNTVYLQMNSLKPEDTAVYYCAATGGDRYEAYYYWGQGTQVTVSS | low polyreactivity
QVQLVESGGGLVQAGGSLRLSCAASGSTFVNNAMGWYRQAPGKERELVAAIRNTGGRTYYADSVKGRFTISRDNAKNTVYLQMNSLKPEDTAVYYCAALSRVRTLWRMDYWGQGSQVTVSS | high polyreactivity
QVQLVESGGGLVQAGGSLRVSCAASGNTFGGYAMGWYRQAPGKERELVAAISSSGGSTYYADSVKGRFTISRDNAKNTVYLQMNSLKPEDTAVYYCAAYGGVYGYWTMGYWGQGTQVTVSS | high polyreactivity
QVQLVESGGGLVQAGGSLRLSCAASGRTFVGNAMGWYRQAPGKERELVAAITVNGVRTYYADSVKGRFTSSRDNAKNTVYLQMNSLKPEATAVYYCARDALHYAGSLHRYGYWGQGTQVTVSS | low polyreactivity
QVQLVESGGGLVQAGGSLRLSCAASGSIVGYNAMGWYRQAPGKEWEFVAAISWSGGRTYYADSVKGRFTISRDNAKNTVYLQMNILKPEDTAVYYSAADVFFYVYEAYLLYYWGQRTQVTVSS | low polyreactivity
QVQLVESGGGLVQAGGSLRLSCAASGNTFHPYAMGWYRQAPGKVRELVAAITKSGGSTYYADSVKGRFTISRDNAKNTVYLQMNSLKPEDTAVYYCATDGYEYTDYGSSGYDYWGQGTQVTVSS | low polyreactivity
QVQLVESGGGLVQAGGSLRLSCAASGTTFLINAMGWYRQAPGKERELVATISSGGSTYYADSVKGRFTISRDNAKNNVYLQMNSLKPEDTAVYFCAADPDRTAYDYWGQGTQVTVSS | low polyreactivity
QVQLVESGGGLVQAGGSLRLTCAASGSIFLYYAMGWYRQAPGKERELVAGINRVGSTNYADSVKGRFTISRDNAKNTVNLQMNSLKPEDTAVYYCNKRATRSRRRGYWGQGTQVTVSS | low polyreactivity
QVQLVESGGGLVQAGGSLRLSCAASGSTFSPYAMGWYRQAPGKERELVANITISGGSTYYADSVKGRFTISRDNAKNTVYLQMNSLKPEDTAVYYCNADSLIRWLFTVVIFDYWGQGTEVTVSS | low polyreactivity
QGQRVESGGVLVQAGGSLRLRCAASGSTFSRYDMGWYRQAPGKERELVATITRAGRTYYADSVKGRFTISRDNAKNTVYLQMNSLIPEDTAVYYCAAELYYWTYVRFDYWGQGTQVTVSS | low polyreactivity
QVQLVESGGGLVQAGGSLRLSCAASGRTFRGNAMGWYRQATGKERELVDVITASGSTTYADSVKGRFTISRDNAKNTVYLQLYSLKPEDTAVYYCAKYVPWYTLWLGGTDRDYWGQGTQVTVSS | low polyreactivity
QVQLVESGGGLDQAGGSLRLSCAASGLTFGTYPMGWYRQAPGKETELVAAIRSGGSTNYADSVKGRFTISRDNAKNTVYLQMNSLKPEDTAVYYCNSVTVYYRKYEFWGQGTQVTVSS | high polyreactivity
QVHLVESGGGLVQAGGSLRLSCAASGIIFYFYTMGWYRQAPGKERELVAAISSSGGRTFYADSVKGRFTISRDNAKNTDYLQMNSLKPEDTAVYYCAAAHTREYYWGQGTQVTVSS | high polyreactivity
QFQLVESGGGLVQAGGSLRLSCAASGRTISHNVMGWYRQAPGKEWELVAAISRNGGRTYYADSVKGRFTISRDNAKNTVYLQLNSLKTEDTAVYYCAAEAYPEYYYWGLGTQVTVSS | high polyreactivity
QVQLVESGGGLVQAGGSLRLSCAASGFTFDNYAMGWYRQAPGKERELVAAINWSGDRTYYADSVKGRFTISRDNAKNTVYLQMNSQIPEDTAVYYCNAVTSWAGSLDYWGQGTQVTVSS | high polyreactivity
QVQLVESGGGLDQAGGSLRLSCAASGRIFCQYAMGWYRQAPGKERELVAAMSRSGGSTYYAHSVKGRFTISRDNAKNTVYLQMTSLKPEDTAVYYCAARKASGDPGSAGRPEYYYWGQGNQVTVSS | high polyreactivity
QVQLVESGGGLVQAGGSLRLSCAASGSIFQDYAMGWYRQAPGKERELVAAITSDGSTYYADSVKGRFTISRDNAKNTVYLQMNSLKPEDTAVYYCATDKLYGRTVRMDYWGQGTQVTVSS | low polyreactivity
